# Test results published in IntAct's records for PubMed 15457209.
# B1: Rab GTPase-binding effector protein 1 (Homo sapiens), Q15276 (parent)
# chain: MAQPGPASQPDVSLQQRVAELEKINAEFLRAQQQLEQEFNQKRAKFKELYLAKEEDLKRQNAVLQAAQDDLGHLRTQLWEAQAEMENIKAIATVSENTKQEAIDEVKRQWREEVASLQAVMKETVRDYEHQFHLRLEQERTQWAQYRESAEREIADLRRRLSEGQEEENLENEMKKAQEDAEKLRSVVMPMEKEIAALKDKLTEAEDKIKELEASKVKELNHYLEAEKSCRTDLEMYVAVLNTQKSVLQEDAEKLRKELHEVCHLLEQERQQHNQLKHTWQKANDQFLESQRLLMRDMQRMEIVLTSEQLRQVEELKKKDQEDDEQQRLNKRKDHKKADVEEEIKIPVVCALTQEESSAQLSNEEEHLDSTRGSVHSLDAGLLLPSGDPFSKSDNDMFKDGLRRAQSTDSLGTSGSLQSKALGYNYKAKSAGNLDESDFGPLVGADSVSENFDTASLGSLQMPSGFMLTKDQERAIKAMTPEQEETASLLSSVTQGMESAYVSPSGYRLVSETEWNLLQKEVHNAGNKLGRRCDMCSNYEKQLQGIQIQEAETRDQVKKLQLMLRQANDQLEKTMKDKQELEDFIKQSSEDSSHQISALVLRAQASEILLEELQQGLSQAKRDVQEQMAVLMQSREQVSEELVRLQKDNDSLQGKHSLHVSLQQAEDFILPDTTEALRELVLKYREDIINVRTAADHVEEKLKAEILFLKEQIQAEQCLKENLEETLQLEIENCKEEIASISSLKAELERIKVEKGQLESTLREKSQQLESLQEIKISLEEQLKKETAAKATVEQLMFEEKNKAQRLQTELDVSEQVQRDFVKLSQTLQVQLERIRQADSLERIRAILNDTKLTDINQLPET
# partner: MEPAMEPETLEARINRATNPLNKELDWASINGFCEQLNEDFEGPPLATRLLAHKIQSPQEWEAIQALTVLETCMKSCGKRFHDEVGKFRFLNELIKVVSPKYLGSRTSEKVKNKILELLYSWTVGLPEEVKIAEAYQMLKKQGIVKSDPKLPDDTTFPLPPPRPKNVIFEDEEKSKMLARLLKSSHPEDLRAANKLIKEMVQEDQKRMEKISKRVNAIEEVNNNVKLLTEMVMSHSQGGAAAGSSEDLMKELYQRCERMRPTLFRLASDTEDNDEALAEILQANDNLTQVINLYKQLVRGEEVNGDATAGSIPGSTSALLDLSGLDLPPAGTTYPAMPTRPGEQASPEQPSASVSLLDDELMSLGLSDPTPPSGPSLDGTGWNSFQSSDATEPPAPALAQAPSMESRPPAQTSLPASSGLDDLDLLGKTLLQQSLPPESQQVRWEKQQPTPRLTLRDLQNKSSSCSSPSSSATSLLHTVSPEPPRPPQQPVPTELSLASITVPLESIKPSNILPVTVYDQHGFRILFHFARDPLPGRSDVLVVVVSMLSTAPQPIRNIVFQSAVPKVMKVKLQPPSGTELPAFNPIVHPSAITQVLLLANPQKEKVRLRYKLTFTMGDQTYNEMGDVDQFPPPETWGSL
# Variants of: B1
# Conditions: with gga1_human GGA1, Q9UJY5
row,Variant,effect of a mutation on the interaction
1,M563R,decreasing interaction
2,Q561A,decreasing interaction
3,Q566A,decreasing interaction

# Other lines, results leading:
row,effect of a mutation on the interaction,Variant
1,decreasing interaction,N568R
2,decreasing interaction,Q566R
